As usually defined, the Kd is a measure of binding affinity in units of concentration. The term koff denotes the rate constant with which the complex falls apart. Read a low koff as a long-lived complex. A word on the kon: it is the rate constant with which the complex forms. Usually IC50 stands for the concentration that gives 50% inhibition. What is called EC50 is the concentration needed to bring the measured effect to its halfway point.

Substitutions are numbered along the chain they refer to. Numbers in names are those of the source. Where two headings read alike, the source gives them in different places.

The text below walks through data of patent US20250313625A1 (ELPISCIENCE SUZHOU BIOPHARMA, published 2025).

For assay [1], the target named is T1, human LAG3 (form used in Octet, Biacore and HDX-MS not given) (human, UniProt P18627 23-450, limits assumed).
T1 sequence (looked up): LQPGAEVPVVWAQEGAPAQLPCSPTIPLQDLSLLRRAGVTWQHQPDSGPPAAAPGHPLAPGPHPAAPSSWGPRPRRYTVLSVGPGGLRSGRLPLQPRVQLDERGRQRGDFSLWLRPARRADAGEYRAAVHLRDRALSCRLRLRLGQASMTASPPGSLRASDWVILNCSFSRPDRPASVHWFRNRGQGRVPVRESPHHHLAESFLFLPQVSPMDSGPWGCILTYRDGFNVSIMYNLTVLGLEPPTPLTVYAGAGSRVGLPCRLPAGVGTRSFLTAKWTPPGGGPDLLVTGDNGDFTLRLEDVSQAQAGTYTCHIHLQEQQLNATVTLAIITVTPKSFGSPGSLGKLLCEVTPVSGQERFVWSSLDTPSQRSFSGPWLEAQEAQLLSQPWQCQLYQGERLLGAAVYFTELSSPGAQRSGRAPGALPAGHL
Put plainly: BLI (Octet), 1:1 fit. The method, then:
(§1) The association and dissociation curves were fit with 1:1 binding model, and the Ka/Kd/KD values for each antibody were calculated.
as §1
(In BLI a coated tip is dipped into the sample, and binding shifts an interference pattern.)

The target of assay [2] is T2, mFc tagged human LAG3 ECD recombinant protein (human, UniProt P18627 23-450).
T2 construct: extracellular domain; purchased from Biointron; not shown: mouse IgG Fc (mFc) tag
T2 sequence (looked up): T1 sequence (looked up)
Description: competitive FACS: mFc tagged human LAG3 ECD binding to MHC II on Raji cells. On the procedure:
(§2) Activity of the purified chimeric antibodies to block LAG3 and MHC II interaction was determined by competitive FACS assay. […] After washing, dye labeled anti-mouse Fc 2nd antibody (Sigma) was added and incubated at 37° C. for 1 hour. Fluorescence intensity was detected.

Assay [3] deals with T2, mFc tagged human LAG3 ECD recombinant …. The assay is described as above. On the procedure:
as §2
This is another data set of the same source.

The target is the same in assay [4]. Put plainly: competitive FACS: mFc-LAG3 ECD binding to Raji cells (MHC II). On the procedure:
as §2

Assay [5] deals with T3, human LAG3, full length, stably expressed on cells (human, UniProt P18627 23-525).
T3 construct: whole, on cells; also called CHOK1-human LAG3
T3 sequence (looked up): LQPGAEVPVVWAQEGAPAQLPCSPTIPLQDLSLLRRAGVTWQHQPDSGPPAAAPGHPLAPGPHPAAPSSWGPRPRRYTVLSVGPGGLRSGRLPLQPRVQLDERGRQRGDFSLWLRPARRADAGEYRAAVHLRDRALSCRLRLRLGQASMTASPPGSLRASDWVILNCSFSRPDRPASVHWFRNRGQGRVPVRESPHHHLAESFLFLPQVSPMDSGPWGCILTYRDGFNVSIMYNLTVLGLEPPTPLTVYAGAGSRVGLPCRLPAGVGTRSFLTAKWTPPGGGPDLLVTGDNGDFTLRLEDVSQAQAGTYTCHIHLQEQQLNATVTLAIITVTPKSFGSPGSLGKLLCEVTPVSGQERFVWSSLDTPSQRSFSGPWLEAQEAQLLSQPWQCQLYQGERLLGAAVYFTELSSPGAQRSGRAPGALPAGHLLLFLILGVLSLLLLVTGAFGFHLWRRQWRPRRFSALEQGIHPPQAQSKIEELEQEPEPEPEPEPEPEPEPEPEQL
Description: FACS on 293F cells stably expressing human LAG3. The method, then:
(§3) Briefly the antibodies were incubated with 2×10⁵ target cells at 4° C. for 1 hour. After washing, fluorescence labeled anti-mouse IgG 2nd antibody (Life Technologies) was added and incubated at 4° C. for 1 hour. Geometric median fluorescence intensity (MFI) was detected and EC₅₀ was calculated using GraphPad Prism9.0.
(§4) MFI was detected and EC₅₀ was calculated using GraphPad Prism9.0.

The target of assay [6] is T1, human LAG3 (form used in Octet, Biacore …). Description: BLI (Octet).
Assay [7] shares this target. Description: SPR (Biacore), 1:1 fit. On the procedure: as §1
The target in assay [8] is T4, hFc tagged human LAG3 ECD recombinant protein (human, UniProt P18627 23-450).
T4 construct: range 23-450; also called biotin labelled hFc tagged human LAG3 ECD; not shown: human IgG Fc tag
T4 sequence (looked up): T1 sequence (looked up)
Put plainly: competitive ELISA format II: biotin hFc-LAG3 ECD binding to coated His-FGL1. The method, then: After washing, HRP labeled anti-His 2nd antibody (Sigma) was added and incubated at 37° C. for 1 hour. Then, 100 μl/well of TMB solution (Biotechnology) was added. After incubation for 15 minutes at room temperature, the reaction was stopped by the addition of 50 μl of 1N HCl. OD 450 nm was read. […] After washing, HRP labeled anti-SA 2nd antibody (Sigma) was added and incubated at 37° C. for 1 hour. Then, 100 μl/well of TMB solution (Biotechnology) was added. After incubation for 15 minutes at room temperature, the reaction was stopped by the addition of 50 μl of 1N HCl. OD 450 nm was read. […] The competition assay of format III is a competitive FACS assay. […] After washing, dye labeled anti-His 2nd antibody (Sigma) was added and incubated at 37° C. for 1 hour. Fluorescence intensity was detected.

Assay [9] addresses T5, human LAG3 ECD recombinant protein (plate coated, tag not stated) (human, UniProt P18627 23-450).
T5 construct: extracellular domain
T5 sequence (looked up): T1 sequence (looked up)
Description: competitive ELISA format I: His-FGL1 binding to coated LAG3 ECD. On the technique in general: An ELISA detects its analyte on a solid surface through an enzyme-linked reagent.

Assay [10] has as its target T6, LAG3 D1 domain extra loop peptide (biotin labelled (site not stated)).
T6 peptide: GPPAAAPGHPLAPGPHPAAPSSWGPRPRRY
Put plainly: ELISA format I: biotin labelled LAG3 D1 domain extra loop peptide on plate coated antibody; axis printed as Ab Conc. (nM). The method, then: In ELISA binding assay of format I (FIG. 9A), biotin labelled LAG3 D1 domain extra loop peptide was incubated with ELISA microplate coated anti-LAG3 antibodies. After washing, HRP labeled anti-SA 2nd antibody (Sigma) was added and incubated at 37° C. for 1 hour. Then, 100 μl/well of TMB solution (Biotechnology) was added. After incubation for 15 minutes at room temperature, the reaction was stopped by the addition of 50 μl of 1N HCl. OD 450 nm was read. In ELISA binding assay of format II (FIG. 9B), biotin labelled LAG3 D1 domain extra loop peptide and anti-LAG3 antibodies were co-incubated in ELISA microplate coated with SA. After washing, HRP labeled anti-human Fc 2nd antibody (Sigma) was added and incubated at 37° C. for 1 hour. Then, 100 μl/well of TMB solution (Biotechnology) was added. After incubation for 15 minutes at room temperature, the reaction was stopped by the addition of 50 μl of 1N HCl. OD 450 nm was read.

Assay [11] deals with T3, human LAG3, full length, stably …. Description: FACS on 293F cells stably expressing human LAG3. On the procedure: as §3, §4
This is another data set of the same source.

For assay [12] the target is unchanged. Description: FACS on CHOK1 cells stably expressing human LAG3. On the procedure: as §4

B1: hu029.55 (antibody, V domains shown)
VH: QVQLVESGGGLVKPGGSLRLSCAASGFTFSSYAMSWIRQAPGKGLEWVSYVTSGGDYIYYADTVKGRFTISRDDAKNSLYLQMNSLRAEDTAVYYCTRVAYDYEWYFDVWGQGTLVTVSS
VL: DIQMTQSPSSVSASVGDRVTITCKASQDVTTAVAWYQQKPGKAPKLLIYSASYRYTGVPSRFSGSGSGTDFTLTISSLQPEDFATYYCQQHDSSPWTFGQGTKLEIK
notes: humanized from 029c
Take B1: in assay [1], the affinity, expressed as Kd, was 4.42 nM; the koff amounted to 0.0197 s⁻¹; the kon was found to be 4.47e+06 M⁻¹ s⁻¹. In addition, in [2], the “%Blocking at 2 nM” value came out at 18.9%, the “%Blocking at 4 nM” value was determined as 37.5% and the “%Blocking at 8 nM” value is 98.8%. In addition, in assay [3], the “%Blocking at 4 nM” value amounted to 26% and the “%Blocking at 8 nM” value was determined as 96.7%.

B2: hu023.11 (antibody, human IgG4, V domains shown)
VH: QVQLVQSGPELKKPGASVKVSCKASGYTFTESPMNWVRQAPGQGFEWMGIIYTDTGEPTYAEEFKGRFVFSLDTSVSTAYLQISSLKAEDTAVYFCVSDYGSILYWYFDVWGQGTLVTVSS
VL: B1 VL with V11L, T30S, A43S, L73F, D92Y, S93N, S94A, W96P
notes: humanized from 023c
Regarding B2, in assay [4], the concentration for half-maximal inhibition (IC50) was 5.8 nM and the “TOP blocking (%)” value amounted to 99.3%. In assay [5], a half-maximal effect (EC50) was put at 0.17 nM and the “TOP MFI” value is 3140. In addition, in assay [6], the Kd amounted to 0.0782 nM, the off-rate (koff) stood at 2.37e-05 s⁻¹ and the kon is 303000 M⁻¹ s⁻¹. In assay [7], binding was characterised by a dissociation constant (Kd) of 0.0205 nM, the koff is 9.1e-05 s⁻¹ and the kon came to 4.43e+06 M⁻¹ s⁻¹. In addition, in assay [8], the IC50 is 1.2 nM and the “TOP blocking (%)” value was determined as 83.9%.

B3: hu023.04 (antibody, human IgG4, V domains shown)
VH: QVQLVQSGAEVKKPGASVKVSCKASGYTFTESPMNWVRQAPGQGFEWMGIIYTDTGEPTYAEEFKGRVTMTRDTSTSTVYMELSSLRSEDTAVYFCASDYGSILYWYFDVWGQGTLVTVSS
VL: B1 VL with V11L, T30S, D92Y, S93N, S94A, W96P
notes: humanized from 023c
With B3, in [4], the IC50 amounted to 5.9 nM and the “TOP blocking (%)” value is 99.2%. Also, in assay [5], the EC50 turned out to be 0.4 nM and the “TOP MFI” value came to 3180. In assay [6], this molecule registered a Kd of 0.537 nM, a dissociation rate constant (koff) of 0.000164 s⁻¹ and a kon of 305000 M⁻¹ s⁻¹. In [7], this molecule gave a Kd of 0.242 nM, a koff of 0.000402 s⁻¹ and a kon of 1.66e+06 M⁻¹ s⁻¹. Further, in [8], the IC50 was found to be 1.7 nM and the “TOP blocking (%)” value is 82.2%.

B4: hu029.55.S93Q (antibody, V domains shown)
VH: B1 VH
VL: B1 VL with S93Q
In assay [1], B4 gave an equilibrium dissociation constant (Kd) of 4.08 nM, a koff of 0.0207 s⁻¹ and a kon of 5.06e+06 M⁻¹ s⁻¹. Moreover, in assay [3], the “%Blocking at 4 nM” value was found to be 62.8% and the “%Blocking at 8 nM” value was 99.4%.

B5: BAP-050 (antibody, V domains shown)
VH: QIQLVQSGPELKKPGETVKISCKASGFTLTNYGMNWVRQTPGKGLKWMGWINTDTGEPTYADDFKGRFAFSLETSASTASLQINNLKNADTATYFCARNPPYYYGTNNAEAMDYWGQGTAVTVSS
VL: DIQMTQTTSSLSASLGDRVTISCSSSQDISNYLNWYQQKPDGTVKVLIYYTSTLHLGVPSRFSGSGSGTDYSLTISNLELEDIATYYCQQYYNLPWTFGGGTKLEIK
notes: also called BAP-50
As to B5, in assay [9], the “Blocking ratio at 66.7 nM (%)” value turned out to be 39.3%. The binding result in assay [10] is recorded as “no binding (tested: about 300 nM)”. Moreover, in [11], the concentration for a half-maximal effect (EC50) is 1.7 nM and the “TOP MFI” value was 267.

B6: hu021.269 (antibody, V domains shown)
VH: QVQLQESGPGLVKPSQTLSLTCTVSGYSITSGYYWNWIRQHPGNKLEWIGDISYDGGNNYNPSLKNRVTISRDTSKNQFSLKLSSVTAADTAVYYCARDITLTGAMDYWGQGTTVTVSS
VL: EIVLTQSPATLSLSPGERATLSCRASESVDNYGISFMHWYQQKPGQAPRLLIYRASNRESGIPARFSGSGSRTDFTLTISSLEPEDFAVYYCQQSNKDPYTFGQGTKLEIK
notes: humanized from 021c
In [1], B6 had a Kd of 6.95 nM, a koff of 0.00314 s⁻¹ and a kon of 451000 M⁻¹ s⁻¹. Besides, in [2], the “%Blocking at 2 nM” value stood at 9.9%, the “%Blocking at 4 nM” value was found to be 30.4% and the “%Blocking at 8 nM” value was 70.2%. Moreover, in assay [12], a half-maximal response (EC50) required 2.3 nM and the “TOP MFI” value turned out to be 598.

B7: hu021.279 (antibody, V domains shown)
VH: B6 VH with V2I, S15G, N36T, G56A, V68I, A89E, V93T
VL: B6 VL with R58L, R72G
notes: humanized from 021c; also called hu21.279
In assay [1], B7 yielded a Kd of 3.57 nM, an off-rate constant (koff) of 0.00313 s⁻¹ and a kon of 877000 M⁻¹ s⁻¹. Besides, in assay [2], the “%Blocking at 2 nM” value stood at 20%, the “%Blocking at 4 nM” value amounted to 40.3% and the “%Blocking at 8 nM” value turned out to be 98.5%. In addition, in [12], the EC50 came out at 0.4 nM and the “TOP MFI” value stood at 669.

B8: hu021.212 (antibody, V domains shown)
VH: B6 VH with T30S, D55E
VL: B6 VL with R58L, S60T
notes: humanized from 021c
For B8, in [2], the “%Blocking at 2 nM” value came out at 4.6%, the “%Blocking at 4 nM” value was found to be 23.9% and the “%Blocking at 8 nM” value came out at 71.5%. In assay [12], it took 1.8 nM to reach a half-maximal effect (EC50) and the “TOP MFI” value was 586.
